This is an account of results in the RNAGym collection of RNA variant scans (doi:10.7554/elife.90254).

B1: LINE1-mini (parent)
chain: GGCAGAGCUCAACACAGCGUGGCAAAGUGGCUGUGGCUAGACUGCC

Variants of B1 are the subject of this data set. As to the kind of experiment: self-cleavage, relative activity (ratio to wild type); higher = more cleavage; in vitro, sequencing; the parent is a self-cleaving ribozyme.
For C23G A26C, the self-cleavage was found to be 0.88. With C23G A26G, the self-cleavage came to 0.76.

As to C23G A26U, the self-cleavage stood at 1.62. As for C23G G35U, the figure is 0.11; as for C23G G35C, 0.12. The result for C23G G35A reads 0.14. As to A24C C31U, the self-cleavage turned out to be 0.12. Consider A24C C31A, for which the self-cleavage came out at 0.06. As for A24C C31G, the figure is 0.03. The result for C23G A41C reads 0.04.

For the variant C23G A41G, the self-cleavage came to 0.37. Turning to C23G A41U, the self-cleavage amounted to 0.53.

Regarding G22U U28C, the self-cleavage worked out at 0.42. Take G22U U28G: the self-cleavage worked out at 0.83.

With G22U U28A, the self-cleavage came to 0.58. The result for C23U G29A reads 1.11.

As to C23U G29U, the self-cleavage was found to be 0.85. As for C23U G29C, the figure is 0.52; as for C23G G27C, 0.27. As for C23G G27U, the figure is 1.17; as for C23G G27A, 0.95.

Turning to G22U G27U, the self-cleavage was 1.46. As for G22U G27C, the figure is 0.57.

Consider G22U G27A, for which the self-cleavage stood at 1.04. Consider A24C G36A, for which the self-cleavage was found to be 0.48. As for A24C G36U, the figure is 0.1; as for A24C G36C, 0.1. For C23A G36C, the self-cleavage worked out at 0.07. As to C23A G36U, the self-cleavage was found to be 0.06. In the case of C23A G36A, the self-cleavage is 0.17. Turning to C23U C46A, the self-cleavage came to 1.4. In the case of C23U C46G, the self-cleavage was 1.58. For C23U C46U, the self-cleavage stood at 1.39.

C23U A39G: the self-cleavage amounted to 0.1. As for C23U A39U, the figure is 0.89; as for C23U A39C, 0.29. The result for C23U G44C reads 0.48. For C23U G44U, the self-cleavage is 0.32. Regarding C23U G44A, the self-cleavage is 0.64. As for A24C G30C, the figure is 0.49; as for A24C G30U, 0.79. The result for A24C G30A reads 0.71; that for A24C A26U, 0.43.

Take A24C A26G: the self-cleavage is 0.33. Take A24C A26C: the self-cleavage was found to be 0.28.

Consider C23U G40U, for which the self-cleavage stood at 0.11. On to C23U G40A, for which the self-cleavage stood at 0.12. As for C23U G40C, the figure is 0.12; as for A24C G29A, 1.02. Take A24C G29C: the self-cleavage worked out at 0.54. As for A24C G29U, the figure is 0.87; as for C23G U43A, 0.08; as for C23G U43C, 0.24. As for A24C G35A, the figure is 0.09. For the variant A24C G35C, the self-cleavage turned out to be 0.06. The result for A24C G35U reads 0.05; that for C23U A24U, 0.84. For the variant C23U A24C, the self-cleavage amounted to 0.71.

For C23U A24G, the self-cleavage was found to be 0.88. As for C23G U38G, the figure is 0.02. The result for C23G U38A reads 0.32; that for C23G U38C, 0.42; that for G22U G35C, 0.22.

G22U G35U: the self-cleavage came out at 0.39. The result for G22U G35A reads 0.15.

Consider C23G G29A, for which the self-cleavage amounted to 1.01. As for C23G G29C, the figure is 0.26; as for C23G G29U, 0.47; as for C23A A26C, 0.98. Regarding C23A A26G, the self-cleavage amounted to 0.94. As for C23A A26U, the figure is 0.88. As for G22U C23A, the figure is 1.25.

Take G22U C23G: the self-cleavage turned out to be 2.27.

On to G22U C23U, for which the self-cleavage is 1.8. The result for G22U U32A reads 0.13; that for G22U U32G, 0.15. Take G22U U32C: the self-cleavage amounted to 0.6. The result for C23G A24U reads 0.75; that for C23G A24C, 0.41; that for C23G A24G, 0.88.

In the case of C23U A25U, the self-cleavage worked out at 0.93. Turning to C23U A25C, the self-cleavage was 0.86.

Turning to C23U A25G, the self-cleavage worked out at 1.17. Take G22U C31G: the self-cleavage was 0.22. As for G22U C31U, the figure is 0.4.

In the case of G22U C31A, the self-cleavage is 0.2. In the case of C23A A41C, the self-cleavage stood at 0.05. Regarding C23A A41G, the self-cleavage was determined as 0.43. The result for C23A A41U reads 0.84. Consider C23G A25U, for which the self-cleavage came to 0.72. On to C23G A25G, for which the self-cleavage was 1. As to C23G A25C, the self-cleavage is 0.69. In the case of C23U G27U, the self-cleavage was 0.87. The result for C23U G27C reads 0.73; that for C23U G27A, 1.07; that for C23A C45U, 1.97. For C23A C45G, the self-cleavage came to 0.42. Take C23A C45A: the self-cleavage came out at 1.12. As for A24C A39C, the figure is 1.1; as for A24C A39U, 0.25; as for A24C A39G, 0.07. As for C23G C37G, the figure is 0.01; as for C23G C37U, 0.02. As for C23G C37A, the figure is 0.04.

As to C23G G30C, the self-cleavage was determined as 2.06. The result for C23G G30A reads 1.88. For the variant C23G G30U, the self-cleavage came to 0.75.

For G22U G40A, the self-cleavage was determined as 0.2. As for G22U G40U, the figure is 0.15.

In the case of G22U G40C, the self-cleavage came to 0.18. As for C23U U32A, the figure is 0.2. As for C23U U32C, the figure is 0.61; as for C23U U32G, 0.36; as for C23G A39U, 0.69. As for C23G A39G, the figure is 0.09. With C23G A39C, the self-cleavage was found to be 0.07. As for C23A A25C, the figure is 0.61.

For the variant C23A A25U, the self-cleavage came out at 0.78. As for C23A A25G, the figure is 0.49. As for C23A C46U, the figure is 1.1; as for C23A C46A, 0.98.

In the case of C23A C46G, the self-cleavage came to 1.53. As for G22U C37G, the figure is 0.03; as for G22U C37A, 0.06; as for G22U C37U, 0.05. In the case of C23A G33C, the self-cleavage is 0.05. As to C23A G33A, the self-cleavage amounted to 0.78. For C23A G33U, the self-cleavage turned out to be 0.2. Turning to C23U A26G, the self-cleavage was found to be 0.88.

For C23U A26U, the self-cleavage was found to be 0.99. In the case of C23U A26C, the self-cleavage amounted to 0.64. As for C23U C42A, the self-cleavage was 0.25. For the variant C23U C42G, the self-cleavage is 0.09. The result for C23U C42U reads 0.91; that for G22U, 1.38; that for G22U A25G, 1.01.

G22U A25U: the self-cleavage came to 1.49. The result for G22U A25C reads 0.65; that for A24C C37A, 0.03. Regarding A24C C37U, the self-cleavage stood at 0.06. As for A24C C37G, the figure is 0.02. Consider A24C G33U, for which the self-cleavage was 0.04. On to A24C G33C, for which the self-cleavage is 0.04. The result for A24C G33A reads 0.06. As for G22U C45A, the figure is 0.88. For G22U C45G, the self-cleavage was determined as 0.42.

Take G22U C45U: the self-cleavage was determined as 1.25.

Turning to G22U A26U, the self-cleavage stood at 1.59. The result for G22U A26C reads 1.53. As to G22U A26G, the self-cleavage was determined as 1.68. The result for A24C A41G reads 0.25. For the variant A24C A41U, the self-cleavage stood at 0.26. On to A24C A41C, for which the self-cleavage was found to be 0.04. As for G22U C42G, the figure is 0.04; as for G22U C42A, 0.28.

On to G22U C42U, for which the self-cleavage is 0.39. In the case of C23A U28G, the self-cleavage stood at 0.44. As for C23A U28A, the figure is 0.78; as for C23A U28C, 0.88. Regarding C23U G35U, the self-cleavage stood at 0.16. For the variant C23U G35A, the self-cleavage was determined as 0.19. Take C23U G35C: the self-cleavage is 0.1. The result for C23G C42U reads 0.47; that for C23G C42G, 0.03.

Take C23G C42A: the self-cleavage is 0.19. The result for G22U G30A reads 1.49. G22U G30C: the self-cleavage came out at 2.28.
